In publication PMC9464890, “Exosite binding modulates the specificity of the immunomodulatory enzyme ScpA, a C5a inactivating bacterial protease” (Computational and Structural Biotechnology Journal, 2022):
Numbering of substitutions follows the chain as printed.

What was measured:
ScpA_(S512A,E864A) = molecular target: T1, ScpA_(S512A,E864A) (Streptococcus pyogenes, UniProt P15926 31-1032, S512A | E864A); experiment: SPR; BIAcore X100, NTA sensor chip with about 20-25 RU of immobilised His-tagged C5a form (ligand), ScpA form flowed as ligate at 30 uL/min, 25 °C, 10 mM Hepes-KOH pH 7.4, 150 mM NaCl, 0.005% Tween 20, 50 uM EDTA; global fit, 1:1 Langmuir model with drifting baseline; triplicate; settings: both partners purified
T1 construct: Made by QuikChange II from pGEX ScpA(31-1032); also called E864A_(S512A); source: details in Supplemental Information SI1 and SI2
T1 sequence (looked up): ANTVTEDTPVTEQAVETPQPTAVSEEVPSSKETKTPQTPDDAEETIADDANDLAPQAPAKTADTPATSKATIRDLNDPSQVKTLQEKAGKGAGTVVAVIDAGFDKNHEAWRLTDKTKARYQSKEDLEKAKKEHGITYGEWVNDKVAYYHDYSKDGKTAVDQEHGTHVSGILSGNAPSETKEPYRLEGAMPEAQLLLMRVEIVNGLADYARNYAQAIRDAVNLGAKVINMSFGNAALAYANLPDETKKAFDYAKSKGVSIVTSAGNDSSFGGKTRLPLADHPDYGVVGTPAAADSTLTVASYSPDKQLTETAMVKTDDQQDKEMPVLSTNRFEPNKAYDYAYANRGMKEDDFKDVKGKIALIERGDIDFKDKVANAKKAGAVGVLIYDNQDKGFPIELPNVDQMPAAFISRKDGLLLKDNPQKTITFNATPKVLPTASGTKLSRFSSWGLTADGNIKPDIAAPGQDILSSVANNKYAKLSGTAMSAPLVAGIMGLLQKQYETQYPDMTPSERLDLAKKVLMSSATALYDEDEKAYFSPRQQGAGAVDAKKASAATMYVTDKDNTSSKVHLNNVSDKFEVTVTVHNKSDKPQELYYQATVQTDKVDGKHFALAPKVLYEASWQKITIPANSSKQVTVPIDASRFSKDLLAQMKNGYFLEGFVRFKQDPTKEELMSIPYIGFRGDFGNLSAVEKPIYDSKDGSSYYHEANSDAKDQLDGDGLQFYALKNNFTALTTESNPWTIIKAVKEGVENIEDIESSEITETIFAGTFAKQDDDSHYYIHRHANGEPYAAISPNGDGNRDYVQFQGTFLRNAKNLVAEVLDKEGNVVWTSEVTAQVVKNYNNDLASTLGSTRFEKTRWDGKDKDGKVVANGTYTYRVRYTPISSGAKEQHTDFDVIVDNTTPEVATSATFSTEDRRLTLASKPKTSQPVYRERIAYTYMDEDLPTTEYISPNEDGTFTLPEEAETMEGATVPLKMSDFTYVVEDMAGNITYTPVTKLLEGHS

ScpA_(S512A,D889A) = molecular target: T2, ScpA_(S512A,D889A) (Streptococcus pyogenes, UniProt P15926 31-1032, S512A | D889A); experiment: as above; settings: both partners purified
T2 construct: Made by QuikChange II from pGEX ScpA(31-1032); also called D889A_(S512A); source: details in Supplemental Information SI1 and SI2
T2 sequence (looked up): T1 sequence (looked up) with A834E, D859A

B1: Recombinant human C5a (rhC5a) (natural protein, UniProt P01031 678-751, looked up)
chain: TLQKKIEEIAAKYKHSVVKKCCYDGACVNNDETCEQRAARISLGPRCIKAFTECCVVASQLRANISHKDMQLGR
notes: human complement C5a anaphylatoxin, residues 1-74 (core 1-67 and tail 68-74); also called full length rhC5a; substrate; not shown: His6, N-terminal, kept
Work on B1 yielded a Kd (ScpA_(S512A,E864A)) of 25 nM, a koff (ScpA_(S512A,E864A)) of 0.0064 s⁻¹ and a kon (ScpA_(S512A,E864A)) of 260000 M⁻¹ s⁻¹. It also gave a Kd (ScpA_(S512A,D889A)) of 27 nM, a koff (ScpA_(S512A,D889A)) of 0.007 s⁻¹ and a kon (ScpA_(S512A,D889A)) of 263000 M⁻¹ s⁻¹.
